The record followed here is article PMC2752461, “Involvement of S-adenosylmethionine-dependent halide/thiol methyltransferase (HTMT) in methyl halide emissions from agricultural plants: isolation and characterization of an HTMT-coding gene from Raphanus sativus (daikon radish)” (BMC Plant Biology, 2009).

Substrate in data set [1]: S
The data set is described as follows: GC-MS headspace assay of methylated product. Type of data set: biochemical, Raphanus sativus. Conditions: 500 μM SAM constant, supplied as NaSH, 20 mM MES pH 7.0, 30 °C.

Substrate in data set [2]: I
The data set is described as follows: GC-MS headspace assay of methylated product. Type of data set: biochemical, Raphanus sativus. Conditions: 500 μM SAM constant, 20 mM MES pH 7.0, 30 °C.

Substrate in the data set “purified protein”: C[S+](CC[C@H](N)C(=O)O)C[C@H]1O[C@@H](n2cnc3c(N)ncnc32)[C@H](O)[C@@H]1O
The data set is described as follows: purified protein. Conditions: 20 mM iodide constant, 20 mM MES pH 7.0, 30 °C.

Substrate in data set [3]: N#CS
The data set is described as follows: GC-FID of CH3SCN formation. Conditions: 500 μM SAM constant, KSCN, 20 mM MES pH 7.0, 30 °C. Type of data set: biochemical, Raphanus sativus. From the text: GC-FID of CH3SCN formation on recombinant RsHTMT

The term Km denotes the substrate concentration at which the rate is half of its maximum. What is called Vmax is the top rate of the reaction or transport when substrate is in excess.

B1: recombinant RsHTMT (Raphanus sativus) (protein)
chain: MAEGQQNSGNSNGENIIPPEDVAKFLPKTVEEGGWEKCWEDGVTPWDQGRATPLVVHLVESSSLPLGRALVPGCGGGHDVVAMASPERYVVGLDISESALEKAAETYASSPKAKYFTFVKEDFFTWRPSELFDLIFDYVVFCAIEPEMRAAWAKTMYELLKPDGELITLMYPITDHDGGPPYKVAVSTYEDVLVPVGFKAVSIEENPYSIATRKGKEKLGRWKKIN
notes: sense primer encodes MAEGQQ), His-tagged fusion in pET-21b, E. coli BL21(DE3), Ni-Sepharose, tag kept
With B1, the Km in data set [1] came to 12240 µM; in data set [2], 4470 µM; in the data set “purified protein” it was 190 µM; in data set [3], 40 µM. Besides, the Vmax worked out at 0.159 µmol/min/mg in data set [1], 0.139 µmol/min/mg in data set [2] and 0.185 µmol/min/mg in data set [3].
